# Experimental data as given in article PMC10772735, “Characterization of erythroferrone oligomerization and its impact on BMP antagonism” (The Journal of Biological Chemistry, 2023).
# B1: N-terminally flag-tagged hERFE (residues 44–354), WT erythroferrone [human] / BMP6 [not stated] (parent)
# chain 1: PPPGNELPRGPGESRAGPAARPPEPTAERAHSVDPRDAWMLFVRQSDKGVNGKKRSRGKAKKLKFGLPGPPGPPGPQGPPGPIIPPEALLKEFQLLLKGAVRQRERAEPEPCTCGPAGPVAASLAPVSATAGEDDDDVVGDVLALLAAPLAPGPRAPRVEAAFLCRLRRDALVERRALHELGVYYLPDAEGAFRRGPGLNLTSGQYRAPVAGFYALAATLHVALGEPPRRGPPRPRDHLRLLICIQSRCQRNASLEAIMGLESSSELFTISVNGVLYLQMGQWTSVFLDNASGCSLTVRSGSHFSAVLLGV
# chain 2: SASSRRRQQSRNRSTQSQDVARVSSASDYNSSELKTACRKHELYVSFQDLGWQDWIIAPKGYAANYCDGECSFPLNAHMNATNHAIVQTLVHLMNPEYVPKPCCAPTKLNAISVLYFDDNSNVILKKYRNMVVRACGCH
# Variants of: B1
# Assay: SPR competition (BMP6 + ERFE over Alk3-Fc captured on protein A chip)
# Conditions: curve maximum near the ~300 s dotted line, RU is residual BMP6 binding to Alk3-Fc (lower RU = more competition by ERFE), read off a plot
"response (with BMP6, 10 nM BMP6 + 80 nM W82A ERFE)","response (with BMP6, 10 nM BMP6 + 160 nM W82A ERFE)","response (with BMP6, 10 nM BMP6 + 80 nM F85A ERFE)","response (with BMP6, 10 nM BMP6 + 160 nM F85A ERFE)",Variant
12 RU,10 RU,–,–,chain 1 PPPGNELPRGPGESRAGPAARPPEPTAERAHSVDPRDAAMLFVRQSDKGVNGKKRSRGKAKKLKFGLPGPPGPPGPQGPPGPIIPPEALLKEFQLLLKGAVRQRERAEPEPCTCGPAGPVAASLAPVSATAGEDDDDVVGDVLALLAAPLAPGPRAPRVEAAFLCRLRRDALVERRALHELGVYYLPDAEGAFRRGPGLNLTSGQYRAPVAGFYALAATLHVALGEPPRRGPPRPRDHLRLLICIQSRCQRNASLEAIMGLESSSELFTISVNGVLYLQMGQWTSVFLDNASGCSLTVRSGSHFSAVLLGV [chain 1 W39A]
–,–,12 RU,11 RU,chain 1 PPPGNELPRGPGESRAGPAARPPEPTAERAHSVDPRDAWMLAVRQSDKGVNGKKRSRGKAKKLKFGLPGPPGPPGPQGPPGPIIPPEALLKEFQLLLKGAVRQRERAEPEPCTCGPAGPVAASLAPVSATAGEDDDDVVGDVLALLAAPLAPGPRAPRVEAAFLCRLRRDALVERRALHELGVYYLPDAEGAFRRGPGLNLTSGQYRAPVAGFYALAATLHVALGEPPRRGPPRPRDHLRLLICIQSRCQRNASLEAIMGLESSSELFTISVNGVLYLQMGQWTSVFLDNASGCSLTVRSGSHFSAVLLGV [chain 1 F42A]
